In patent US20200157212A1 (Pfizer, published 2020):
Residue numbers refer to the chain shown, from its start.

B1: CTIR2-1 (antibody, human IgG1, kappa, V domains shown)
VH: EVQLVQSGAEVKKPGASVKVSCKASGYTFTGYYMHWVRQAPGQGLEWMGWINPRSGATNFPQKFQGRVTMTRDTSITTAYMDLSRLRSDDTAVYYCARESGDDAFDIWGQGTMVTVSS
VL: DIVMTQSPSSLSASVGDRVTITCRASQSISSYLNWYQQKPGKAPKLLIYAASSLQYGVPSRFSGSGSGTDFTLTISSLQPEDFATYYCQQSLELGFGGGTKVEIKR
notes: CDR-shuffled IgG
B2: CTIR2-5 (antibody, human IgG1, kappa, V domains shown)
VH: B1 VH with R54K
VL: B1 VL with S28K, Y56S
notes: CDR-shuffled IgG
B3: CTIR2-2 (antibody, human IgG1, kappa, V domains shown)
VH: B1 VH
VL: B1 VL with L92V, E93G, G95S
notes: CDR-shuffled IgG
B4: CTIR2-3 (antibody, human IgG1, kappa, V domains shown)
VH: B1 VH
VL: B1 VL with L92V, E93G, G95F
notes: CDR-shuffled IgG
B5: CTIR2-4 (antibody, human IgG1, kappa, V domains shown)
VH: B1 VH with R54K
VL: B1 VL with S28K, L92Y, E93S, L94T, G95S
notes: CDR-shuffled IgG
B6: CTIR2-11 (antibody, human IgG1, kappa, V domains shown)
VH: B1 VH with T30R, Y33A, N52D, S55T, A57L, N59K
VL: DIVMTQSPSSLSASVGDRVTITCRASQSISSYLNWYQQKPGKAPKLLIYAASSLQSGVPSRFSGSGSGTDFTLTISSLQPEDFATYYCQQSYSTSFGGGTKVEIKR
notes: CDR-shuffled IgG
B7: CTIR2-12 (antibody, human IgG1, kappa, V domains shown)
VH: B1 VH with T30R, Y33A, N52D, S55T, A57L, N59K
VL: B1 VL with S28K, Y56S, L92Y, E93S, L94T, G95S
notes: CDR-shuffled IgG
B8: CTIR2-7 (antibody, human IgG1, kappa, V domains shown)
VH: B1 VH with R54K
VL: B1 VL with S28K
notes: CDR-shuffled IgG
B9: CTIR2-8 (antibody, human IgG1, kappa, V domains shown)
VH: B1 VH with R54K
VL: B1 VL with S28K, L92V, E93G, G95S
notes: CDR-shuffled IgG

Molecular target: T1, Terbium (Tb) labeled-SNAP tagged ROBO2 expressed on HEK293 cells (Homo sapiens (Human), UniProt Q9HCK4 22-1378, terbium label on the SNAP tag)
T1 construct: also called Tb-labeled ROBO2 cells; ROBO2 expressing cells; not shown: SNAP tag
T1 sequence: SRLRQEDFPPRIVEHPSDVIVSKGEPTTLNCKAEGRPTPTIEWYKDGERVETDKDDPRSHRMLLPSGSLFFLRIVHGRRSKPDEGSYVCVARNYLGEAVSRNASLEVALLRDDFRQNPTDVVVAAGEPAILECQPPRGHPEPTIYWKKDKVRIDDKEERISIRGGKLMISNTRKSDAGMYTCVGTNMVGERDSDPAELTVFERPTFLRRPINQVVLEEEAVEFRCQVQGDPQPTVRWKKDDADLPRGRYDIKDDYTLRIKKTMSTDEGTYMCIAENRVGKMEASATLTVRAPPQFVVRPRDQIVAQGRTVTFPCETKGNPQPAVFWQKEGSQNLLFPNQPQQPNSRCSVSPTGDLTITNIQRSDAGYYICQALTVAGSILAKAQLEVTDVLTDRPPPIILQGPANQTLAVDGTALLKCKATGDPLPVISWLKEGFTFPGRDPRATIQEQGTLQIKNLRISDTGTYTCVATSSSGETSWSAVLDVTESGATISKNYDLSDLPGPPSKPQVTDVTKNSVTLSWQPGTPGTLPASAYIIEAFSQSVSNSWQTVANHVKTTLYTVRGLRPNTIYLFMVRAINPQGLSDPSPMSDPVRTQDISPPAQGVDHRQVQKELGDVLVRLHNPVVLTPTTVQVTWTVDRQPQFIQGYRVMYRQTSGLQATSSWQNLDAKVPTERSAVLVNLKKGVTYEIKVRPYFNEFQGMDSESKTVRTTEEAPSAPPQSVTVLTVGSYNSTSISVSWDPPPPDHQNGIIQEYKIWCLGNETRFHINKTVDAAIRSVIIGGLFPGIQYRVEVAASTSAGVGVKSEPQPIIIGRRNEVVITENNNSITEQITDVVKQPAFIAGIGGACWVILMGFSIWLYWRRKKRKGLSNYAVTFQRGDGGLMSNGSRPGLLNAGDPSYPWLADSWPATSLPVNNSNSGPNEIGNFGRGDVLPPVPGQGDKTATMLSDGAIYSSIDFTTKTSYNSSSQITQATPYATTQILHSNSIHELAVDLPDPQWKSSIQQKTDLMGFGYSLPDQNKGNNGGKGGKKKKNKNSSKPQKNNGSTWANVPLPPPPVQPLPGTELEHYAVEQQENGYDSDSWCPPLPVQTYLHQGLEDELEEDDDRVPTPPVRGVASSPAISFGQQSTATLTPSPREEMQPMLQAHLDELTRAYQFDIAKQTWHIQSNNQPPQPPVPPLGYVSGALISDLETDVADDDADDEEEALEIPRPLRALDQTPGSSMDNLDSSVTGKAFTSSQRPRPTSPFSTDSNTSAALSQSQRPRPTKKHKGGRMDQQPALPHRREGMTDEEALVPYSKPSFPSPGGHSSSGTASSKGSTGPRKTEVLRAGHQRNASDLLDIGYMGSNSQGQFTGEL
Assay: HTRF competition, competitor d2-SLIT2-N, ROBO2 HEK293 cells
Procedure: (§1) Antibodies generated as a result of the affinity maturation campaign were screened by numerous assays for neutralization of SLIT2-N binding, selective binding to ROBO2 over ROBO1, and inhibition of SLIT2-N functional activity (see Table 2). A ROBO2-SLIT2-N homogenous time resolved fluorescence (HTRF) assay was used to identify antibodies that were capable of blocking SLIT2-N binding to ROBO2. In this assay, terbium (Tb) labeled-SNAP tagged ROBO2 expressing HEK293 cells were incubated with 5 nM d2-labeled SLIT-2N in the presence of 1 nM anti-ROBO2 antibodies for 1 hour. After incubation, fluorescence at 665 nm and 620 nm was measured on an Envision multilabel plate reader. […] Maximal signal was defined as the HTRF ratio of Tb-labeled ROBO2 cells with d2-labeled SLIT2-N in the absence of antibody, the minimum signal was defined as the HTRF ratio of Tb-labeled ROBO2 expressing HEK293 cells only. One nanomolar (nM) parental antibody, 93H2, was unable to block the HTRF assay, therefore this concentration was selected to identify clones with a higher affinity than 93H2 (Table 2, HTRF Ratio column). […] Antibodies derived from chain (Abcs series) or CDR shuffling (CTIR-2 series) were evaluated in 11-point, 5-fold dilution series with a top concentration of 1500 nM (Table 2 HTRF IC₅₀).

B1 and B2 are within 1.5-fold of each other in IC50: 0.159 nM for the first, 0.165 nM for the second.

B3 and B4 are within 1.5-fold of each other in IC50: 0.109 nM for the first, 0.154 nM for the second.

Going from B5 to B6, the IC50 falls from 0.38 nM to 0.182 nM (2.1-fold).

First: B7
Second: B8
The IC50 of the first is 1.8-fold lower: 0.076 nM for the first, 0.136 nM for the second.

For B9, the IC50 was 0.108 nM.

Molecular target: T1, Terbium (Tb) labeled-SNAP tagged ROBO2 …
Assay: HTRF, 5 nM d2-SLIT2-N on Tb-SNAP-ROBO2 HEK293 cells, 1 nM antibody
Procedure: as §1, with “In” for “Antibodies generated as a result of the affinity maturation campaign were screened by numerous assays for neutralization of SLIT2-N binding, selective binding to ROBO2 over ROBO1, and inhibition of SLIT2-N functional activity (see Table 2). A ROBO2-SLIT2-N homogenous time resolved fluorescence (HTRF) assay was used to identify antibodies that were capable of blocking SLIT2-N binding to ROBO2. In”
HTRF assays were run with 5 nM d2-labeled SLIT2-N and antibodies were added at 1 nM. […] Antibodies derived from chain (Abcs series) or CDR shuffling (CTIR-2 series) were evaluated in 11-point, 5-fold dilution series with a top concentration of 1500 nM, N.T. = not tested; ^cFold selectivity was calculated as Geometric Mean Fluorescent Intensity (Geo MFI) of ROBO2/Geo MFI of ROBO1 binding.

Going from B1 to B2, the “HTRF Ratio” value rises from 4540 to 5180.

Going from B3 to B4, the “HTRF Ratio” value falls from 4330 to 4050.

Going from B5 to B6, the “HTRF Ratio” value falls from 6170 to 4780.

First: B7
Second: B8
The “HTRF Ratio” value of the first is higher: 4580 for the first, 3670 for the second.

For B9, the “HTRF Ratio” value was 3860.
